Measured values reported in patent US20150030595A1 (ANTIBODY AND RECEPTOR THERAPEUTICS, published 2015).

B3: ACVR2B-Fc fusion protein (Fc fusion, not shown: a dimerising Fc or GST; small tags and cut ends)
chain: SGRGEAETRECIYYNANWELERTNQSGLERCEGEQDKRLHCYASWRNSSGTIELVKKGCWLDDFNCYDRQECVATEENPQVYFCCCEGNFCNERFTHLPEAGGPEVTYEPPPTAPTLLT
notes: also called water-soluble ACVR2B
B4: DLK1-Fc fusion protein (Fc fusion, not shown: a dimerising Fc or GST)
chain: AECFPACNPQNGFCEDDNVCRCQPGWQGPLCDQCVTSPGCLHGLCGEPGQCICTDGWDGELCDRDVRACSSAPCANNGTCVSLDDGLYECSCAPGYSGKDCQKKDGPCVINGSPCQHGGTCVDDEGRASHASCLCPPGFSGNFCEIVANSCTPNPCENDGVCTDIGGDFRCRCPAGFIDKTCSRPVTNCASSPCQNGGTCLQHTQVSYECLCKPEFTGLTCVKKRALSPQQVTRLPSGYGLAYRLTPGVHELPVQQPEHRILKVSMKELNKKTPLLTEG
notes: also called DLK-Fc

Tests used:
DLK1-Fc fusion protein = target: B4; assay: SPR (ProteOn XPR36)
[1] = target: T1, C-terminally active myostatin (R&D systems) (UniProt O14793 267-375, limits assumed); assay: ELISA on coated myostatin (1 ug/ml), Fc-HRP
T1 construct: mature
T1 sequence (looked up): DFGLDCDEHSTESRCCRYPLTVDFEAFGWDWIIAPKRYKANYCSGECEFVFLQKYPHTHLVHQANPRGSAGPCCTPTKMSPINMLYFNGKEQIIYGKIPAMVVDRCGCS

[2] = target: T2, EGF5-6-Fc (DLK1 deletion mutant without the 1st to 4th EGF-like repeat domains) (human, UniProt P80370 170-302); assay: SPR (ProteOn XPR36), ACVR2B-Fc coated on the chip, Fc channel as reference
T2 construct: also called 5M-Fc; not shown: human antibody Fc region of the pYK602-Fc vector and any SfiI-junction residues
T2 sequence: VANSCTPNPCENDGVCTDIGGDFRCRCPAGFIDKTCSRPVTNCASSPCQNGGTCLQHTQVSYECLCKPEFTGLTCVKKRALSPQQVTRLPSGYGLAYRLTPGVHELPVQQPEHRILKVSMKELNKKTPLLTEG
Procedure: (§1) This experiment was performed using a ProteOn XPR36 instrument (Bio-Rad). First, a sensor chip (GLC) was activated by reacting 0.1 M EDC and 0.025 M sulfo-NHS (Bio-Rad) for 60 seconds. […] The coating procedure was completed by allowing 1 M ethanolamine-HCl) (pH 8.5) to flow at the coated chip for 200 seconds. To test the bound proteins, the chip was rotated at an angle of 90°, and stabilized by allowing DPBST (PBS with 0.005% Tween 20) to flow on the chip for 30 minutes.

ACVR2B-Fc fusion protein [3] = target: B3; assay: SPR (ProteOn XPR36), ACVR2B-Fc coated, in the presence of B09
[4] = target: T1, C-terminally active myostatin (R&D …); assay: ELISA on coated myostatin, one site binding (hyperbola) fit
Procedure: An immunoplate was coated overnight with 1 μg/ml of C-terminally active myostatin (R&D systems) at 4° C., washed three times with 0.05% PBST Tween 20, and then blocked with 4% skim milk/0.05% PBST Tween 20 at room temperature for 30 minutes. […] Finally, when the reaction was blocked with 2.5 M H₂SO₄, the optical densities were measured and analyzed at 420 nm.
Based on the experiment, a KD value was also determined by analyzing one site binding (hyperbola) using a GraphPad Reism 4 program.

ACVR2B-Fc fusion protein [5] = target: B3; assay: SPR (ProteOn XPR36), ACVR2B-Fc coated
Procedure: as §1

[6] = target: T1, C-terminally active myostatin (R&D …); assay: ELISA, coating 1 ug/ml myostatin, binding 10 nM, anti-human Fc HRP
ACVR2B-Fc fusion protein [7] = target: B3; assay: SPR (ProteOn XPR36), ACVR2B-Fc coated on the chip, Fc channel as reference
Procedure: as §1

B1: human antibody B09 (full-length IgG) (antibody, V domains shown)
VH: QMQLVESGGRLVRPGGSLRLSCAASGFPFTSYAMNWVRQTPGKGLEWVSTITATSGKTYYADSVKGRFTISRDNSRNTLFLQMNSLRAEDTAVYYCVRGESCSGGACSDFDYWGQGALVTVSS
VL: QLVLTQPASVSGSPGQSVTISCTGTSSDIGRYNRVSWYQHHPGKAPKLILNDVTTRPSGFSNRFSGSKSGNTASLTISGLQAEDEADYSCGSYAGSYTYVFGTGTKVTVL
notes: Converted into full-length IgG with pNATAB H and pNATAB L vectors; also called B09 antibody; DLK1 antibody B09
- Kd (DLK1-Fc fusion protein): 0.0109 nM
- koff (DLK1-Fc fusion protein): 6.49e-05 s⁻¹
- kon (DLK1-Fc fusion protein): 3.41e+06 M⁻¹ s⁻¹

B2: ACVR1A-Fc (Fc fusion, UniProt Q04771 21-124, looked up)
chain: MEDEKPKVNPKLYMCVCEGLSCGNEDHCEGQQCFSSLSINDGFHVYQKGCFQVYEQGKMTCKTPPSPGQAVECCQGDWCNRNITAQLPTKGKSFPGTQNFHLEV
notes: Control; origin not described; not shown: Fc; not described
- binding result [1]: no binding (tested: 1 nM)

Binder: B3
- binding result [2]: binds

Binder: B4
- Kd (ACVR2B-Fc fusion protein [3]): 0.407 nM
- koff (ACVR2B-Fc fusion protein [3]): 0.000255 s⁻¹
- kon (ACVR2B-Fc fusion protein [3]): 626000 M⁻¹ s⁻¹
- Kd [4]: 22.8 nM
- Kd (ACVR2B-Fc fusion protein [5]): 1.31 nM
- koff (ACVR2B-Fc fusion protein [5]): 0.000434 s⁻¹
- kon (ACVR2B-Fc fusion protein [5]): 331000 M⁻¹ s⁻¹

B5: JM-Fc (juxtamembrane region of DLK1, all six EGF-like repeat domains deleted) (Fc fusion)
chain: KKRALSPQQVTRLPSGYGLAYRLTPGVHELPVQQPEHRILKVSMKELNKKTPLLTEG
notes: also called juxtamembrane region (JM); not shown: human antibody Fc of the pYK602-Fc vector and the SfiI junction residues between JM and Fc
- binding result [6]: binds
- binding result (ACVR2B-Fc fusion protein [7]): no binding
